Laboratory results as given in patent publication US20160264649A1.

Legend:
Test in all cases: cell-based or functional assay
[1] = biological target: HIV-1 92RW008 Env (HIV-1)
[2] = biological target: HIV-1 92TH021 Env (HIV-1)
[3] = biological target: HIV-1 92UG031 Env (HIV-1)
[4] = biological target: HIV-1 92UG037 Env (HIV-1)
[5] = biological target: HIV-1 92WR009 Env (HIV-1)
[6] = biological target: HIV-1 92WR020 Env (HIV-1)
[7] = biological target: HIV-1 92WR021 Env (HIV-1)
[8] = biological target: HIV-1 92WR024 Env (HIV-1)
[9] = biological target: HIV-1 92WR026 Env (HIV-1)
[10] = biological target: HIV-1 93UG077 Env (HIV-1)
[11] = biological target: HIV-1 93WR029 Env (HIV-1)
[12] = biological target: HIV-1 94KE105 Env (HIV-1)
[13] = biological target: HIV-1 94UG103 Env (HIV-1)
HIV-1 CMU02 Env (HIV-1) = biological target: HIV-1 CMU02 Env (HIV-1)
[14] = biological target: HIV-1 Env of isolate MG RM-C-019 (subtype C) (HIV-1)
[15] = biological target: HIV-1 Env of isolate MG RM-C-020 (subtype C) (HIV-1)
[16] = biological target: HIV-1 Env of isolate MG RM-C-022 (subtype C) (HIV-1)
[17] = biological target: HIV-1 Env of isolate MG RM-C-023 (subtype C) (HIV-1)
[18] = biological target: HIV-1 Env of isolate MG RM-C-024 (subtype C) (HIV-1)
[19] = biological target: HIV-1 Env of isolate MG RM-C-025 (subtype C) (HIV-1)
[20] = biological target: HIV-1 Env of isolate MG RM-C-026 (subtype C) (HIV-1)
[21] = biological target: HIV-1 Env of isolate MG RM-C-027 (subtype C) (HIV-1)
[22] = biological target: HIV-1 Env of isolate MG RM-C-028 (subtype C) (HIV-1)
[23] = biological target: HIV-1 MGRM-A-001 Env (HIV-1)
[24] = biological target: HIV-1 MGRM-A-002 Env (HIV-1)
[25] = biological target: HIV-1 MGRM-A-003 Env (HIV-1)
[26] = biological target: HIV-1 MGRM-A-004 Env (HIV-1)
[27] = biological target: HIV-1 MGRM-A-005 Env (HIV-1)
[28] = biological target: HIV-1 MGRM-A-006 Env (HIV-1)
[29] = biological target: HIV-1 MGRM-A-007 Env (HIV-1)
[30] = biological target: HIV-1 MGRM-A-008 Env (HIV-1)
[31] = biological target: HIV-1 MGRM-A-009 Env (HIV-1)
[32] = biological target: HIV-1 MGRM-A-010 Env (HIV-1)
[33] = biological target: HIV-1 MGRM-A-011 Env (HIV-1)
[34] = biological target: HIV-1 MGRM-A-012 Env (HIV-1)
[35] = biological target: HIV-1 MGRM-A-013 Env (HIV-1)
[36] = biological target: HIV-1 MGRM-A-014 Env (HIV-1)
[37] = biological target: HIV-1 MGRM-AE-001 Env (HIV-1)
[38] = biological target: HIV-1 MGRM-AE-002 Env (HIV-1)
[39] = biological target: HIV-1 MGRM-AE-003 Env (HIV-1)
[40] = biological target: HIV-1 MGRM-AE-004 Env (HIV-1)
[41] = biological target: HIV-1 MGRM-AE-005 Env (HIV-1)
[42] = biological target: HIV-1 MGRM-AE-006 Env (HIV-1)
[43] = biological target: HIV-1 MGRM-AE-007 Env (HIV-1)
[44] = biological target: HIV-1 MGRM-AE-008 Env (HIV-1)
[45] = biological target: HIV-1 MGRM-AG-001 Env (HIV-1)
[46] = biological target: HIV-1 MGRM-AG-002 Env (HIV-1)
[47] = biological target: HIV-1 MGRM-AG-003 Env (HIV-1)
[48] = biological target: HIV-1 MGRM-AG-005 Env (HIV-1)
[49] = biological target: HIV-1 MGRM-AG-006 Env (HIV-1)
[50] = biological target: HIV-1 MGRM-AG-008 Env (HIV-1)
[51] = biological target: HIV-1 MGRM-AG-009 Env (HIV-1)
[52] = biological target: HIV-1 MGRM-AG-011 Env (HIV-1)
[53] = biological target: HIV-1 MGRM-AG-012 Env (HIV-1)
[54] = biological target: HIV-1 MGRM-AG-013 Env (HIV-1)
HIV-1 VLGCA1 Env (HIV-1) = biological target: HIV-1 VLGCA1 Env (HIV-1)

5136_H01 (PGT-131) (antibody)
IC50 [1]: 1.01 µg/mL
IC50 [2]: 0.014 µg/mL
IC50 [3]: > 50 µg/mL
IC50 [4]: 0.048 µg/mL
IC50 [5]: 3.12 µg/mL
IC50 [6]: 0.168 µg/mL
IC50 [7]: 0.012 µg/mL
IC50 [8]: > 50 µg/mL
IC50 [9]: 0.041 µg/mL
IC50 [10]: > 50 µg/mL
IC50 [11]: > 50 µg/mL
IC50 [12]: 0.013 µg/mL
IC50 [13]: 1.1 µg/mL
IC50 (HIV-1 CMU02 Env (HIV-1)): > 50 µg/mL
IC50 [14]: 0.021 µg/mL
IC50 [15]: > 50 µg/mL
IC50 [16]: 0.78 µg/mL
IC50 [17]: 0.143 µg/mL
IC50 [18]: > 50 µg/mL
IC50 [19]: > 50 µg/mL
IC50 [20]: 1.67 µg/mL
IC50 [21]: 0.065 µg/mL
IC50 [22]: > 50 µg/mL
IC50 [23]: > 50 µg/mL
IC50 [24]: > 50 µg/mL
IC50 [25]: > 50 µg/mL
IC50 [26]: > 50 µg/mL
IC50 [27]: > 50 µg/mL
IC50 [28]: > 50 µg/mL
IC50 [29]: > 50 µg/mL
IC50 [30]: > 50 µg/mL
IC50 [31]: 0.035 µg/mL
IC50 [32]: 0.01 µg/mL
IC50 [33]: > 50 µg/mL
IC50 [34]: > 50 µg/mL
IC50 [35]: > 50 µg/mL
IC50 [36]: 15.4 µg/mL
IC50 [37]: 4.8 µg/mL
IC50 [38]: > 50 µg/mL
IC50 [39]: 1.41 µg/mL
IC50 [40]: > 50 µg/mL
IC50 [41]: 0.017 µg/mL
IC50 [42]: 0.026 µg/mL
IC50 [43]: 0.026 µg/mL
IC50 [44]: > 50 µg/mL
IC50 [45]: > 50 µg/mL
IC50 [46]: > 50 µg/mL
IC50 [47]: 2.92 µg/mL
IC50 [48]: 1.04 µg/mL
IC50 [49]: 0.019 µg/mL
IC50 [50]: > 50 µg/mL
IC50 [51]: > 50 µg/mL
IC50 [52]: > 50 µg/mL
IC50 [53]: > 50 µg/mL
IC50 [54]: 0.03 µg/mL
IC50 (HIV-1 VLGCA1 Env (HIV-1)): > 50 µg/mL
